{"source": "patent US20140004120A1", "about": "(Daiichi Sankyo, published 2014)", "target": "T1, rsDR5 (recombinant human DR5 extracellular domain protein) (human, UniProt O14763 56-183)", "T1 construct": "the two may be offset", "experiment": "gel filtration (Superdex 200) of the mixture of cB273 Fab fragment and rsDR5; complex then crystallized"}
{"binder": "cB273 Fab fragment (Fab, V domains shown) VH: EVQLQQSGPELVKPGASVKISCKASGYSFIGYFMNWMKQSHGKSLEWIGRFNPYNGDTFYNQKFKGKATLTVDKSSTTAHMELLSLTSEDSAVYFCGRSAYYFDSGGYFDYWGQGTTLTVSS VL: DVVMTQTPLSLPVSLGDQASISCRSSQSLVHSNGNTYLHWYLQKPGQSPKLLIYKVSNRFSGVPDRFSGSGSGTDFTLKISRVEAEDLGIYFCSQSTHVPWTFGGGTKLEIKR", "values": [{"measurement": "binding result", "value": "binds"}]}
